According to the supplement of paper PMC9170038:

System: MS2 coat protein
Assay: apparent KD of MS2 coat protein; designed switch direction (-1 OFF switch, 1 ON switch): 1; higher = weaker reporter binding
Summary of the method: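 Apparent KD, taken as the median over clusters for each design, was obtained by curve-fitting normalised cluster fluorescence. Designed RNA switches had been transcribed on Illumina chips by stalled E. coli RNA polymerase and titrated with SNAP-549-labelled MS2 coat protein, doubling from 0.7 or 1.5 nM to 3 µM.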

[1] = Eterna round: R95, input ligand: FMN 200 uM
[2] = Eterna round: R95, input ligand: microRNA oligo, concentration not stated
[3] = Eterna round: R95, input ligand: none
[4] = input ligand: microRNA oligo, concentration not stated

Sequence | apparent KD of MS2 coat protein [1] | apparent KD of MS2 coat protein [2] | apparent KD of MS2 coat protein [3] | apparent KD of MS2 coat protein (input ligand: FMN 200 uM) | apparent KD of MS2 coat protein [4] | apparent KD of MS2 coat protein (input ligand: none)
CUCAAAACAAGUUGCAGUGUUCGUCUUUCACAUGAGGAUCACCCAUGUAAUAGCCCAGUGGAAGCGCUCGGGCCACC [Ditixe] (puzzle: Sensor for hsa-mir-208a) | 55.3 nM | 28.9 nM | 47.4 nM | – | – | –
CUCAAACAUGAGGAUCACCCAUGUGUUGUCAUGGGAGGAUAUCCCAGUUCGUUGUAGUCGGGAGAAGGCCUAUGUC [× ×•×ª×• ×ž×“×™× ×” × ×—×ª-13] (puzzle: Same State 1) | – | 54.9 nM | – | – | – | –
CUCACAUGGGUAGGAUAUCUAGGAUAUGGGAAAGACUAAGUCUGUAGGUCACCUAACCCAGAUGGAGAGAAGGACCCAACACUC [pwkr ssNG2 2FMN + F9.37] (Eterna round: R96, puzzle: Same State NG 2) | – | – | – | 32.4 nM | 7.81 nM | 9.82 nM
CUCGUAUCGGGAGGAUAUGGUGCCUUGUUGGUGCUAGAAGGUCCAACAUGAGGAUCACCCAUGUGCGAGUGGUUGAGAGACCGG [SS NG10LRO15] (Eterna round: R96, puzzle: Same State NG 1) | – | – | – | 336 nM | 230 nM | 399 nM
CUCGUAUCGGGAGGAUAUGGUGCCUUGUUGGUGCUAGAAGGUCCAACAUGAGGAUCACCCAUGUGCGAGUGGUUGAGAGACCUC [SS NG10LRO14] (Eterna round: R96, puzzle: Same State NG 1) | – | – | – | 708 nM | 506 nM | 1000 nM
CUGAGCAGUCAAGGAUAUCACGUCGAUUAGACGUGAGAAGGUGACCAAUACAUGAGGAUCACCCAUGUAAUACAUGAAGCUCAG [SSNG1/12-A2] (Eterna round: R96, puzzle: Same State NG 1) | – | – | – | 20.4 nM | 28.5 nM | 39.5 nM
CUGAGCGAUCUAGGAUAUCACGUCGUUUAGACGUGAGAAGGAGAUCAUAACAUGAGGAUCACCCAUGUAUUACAUGAAGCUCAG [SSNG1/6-A3] (Eterna round: R96, puzzle: Same State NG 1) | – | – | – | 14.9 nM | 16.9 nM | 19.1 nM
CUGAGCGAUUAAGGAUAUCACGUCGUUUAGACGUGAGAAGGUGAUCAUAACAUGAGGAUCACCCAUGUAUUACAUGAAGCUCAG [SSNG1/3-A3] (Eterna round: R96, puzzle: Same State NG 1) | – | – | – | 614 nM | 98.1 nM | 128 nM
CUGUAUCGCGGAGGAUAUGGGCUGAGACCAGGACAACCCUGGUCAACAUGAGGAUCACCCAUGUCCCAGAAGGCCGCGAUGCUA [Zazalaonor] (Eterna round: R96, puzzle: Same State NG 2) | – | – | – | 16.1 nM | 97.3 nM | 108 nM
CUUUUUAAUGCAGGAUAUGAUCAACAUGAGGAUCACCCAUGUGGCGUUGUGAGUAAGGAGAGUGAUCAGAAGGGCAUCUCCUCA [SS-NG2-LRO07] (Eterna round: R96, puzzle: Same State NG 2) | – | – | – | 57.5 nM | 54.5 nM | 45.8 nM
GACAAUCUAUCUGAGGAUAUCAUGAAGAAAACAUGAGGAUCACCCAUGUGCAGGAUAACUGCAAAUGAGAAGGCAGAUAGAUUGU [Mat - Same State 2 - Mod - D6] (puzzle: Same State 2) | 17.1 nM | 17.8 nM | 22.4 nM | – | – | –
GAGAGAGGGUGAGGAUAUGGAGUAAUAAUGAUACCAGAAGGCACAGACAUGAGGAUCACCCAUGUGGGAAUAAUCCAGAGAGAG [Parity 7 - Jieux - Same State NG 1] (Eterna round: R96, puzzle: Same State NG 1) | – | – | – | 506 nM | 177 nM | 264 nM
GAGAGAUGGCUAGGAUAUUCGGUGAUAAUGAUAGAAGAAGGAGCUGACAUGAGGAUCACCCAUGUGGGAAUAAUCCAGAGAGAG [Parity 19 - Jieux - Same State NG 1] (Eterna round: R96, puzzle: Same State NG 1) | – | – | – | 167 nM | 56.1 nM | 96.7 nM
GAGCCAGUCCGAGGAUAUUCAUAUUAAAUACAUGAGGAUCACCCAUGUAGGCUCAGAGAGCCUUGGGAGAAGGCGGACUGGCUC [Xeonanisa>>1] (Eterna round: R96, puzzle: Same State NG 2) | – | – | – | 24.9 nM | 63.6 nM | 113 nM
GAGCUCGUGUGAGGAUAUGCCGCCGUUUCGGCUGCAGAAGGUGCUACGUUACAUGAGGAUCACCCAUGUCUCUGUUGUUUCGUG [salish99_SSNG1_r04_958] (Eterna round: R96, puzzle: Same State NG 1) | – | – | – | 23.5 nM | 20.4 nM | 21.9 nM
GAGCUCGUGUGAGGAUAUGCCGCCGUUUCGGCUGCAGAAGGUGCUACGUUACAUGAGGAUCACCCAUGUCUCUGUUGUUUCGUU [salish99_SSNG1_r04_959] (Eterna round: R96, puzzle: Same State NG 1) | – | – | – | 18.5 nM | 17 nM | 24.9 nM
GAGGAACAUGAGGAUCACCCAUGUAGGAUGGGACAAGGAUAUGUAGAUAGCGGAGGAGAGACAGAAGGUGUAGGAA [JR_SS1_Sub053] (puzzle: Same State 1) | 354 nM | 431 nM | 483 nM | – | – | –
GAGGGACAGACCAACAUGAGGAUCACCCAUGUCCUCGCAGGUCAGGAUAUUAUUAGGAUCACCAGUGAGAAGGGACGGUGAAGG (Eterna round: R96, puzzle: Same State NG 3) | – | – | – | 366 nM | 227 nM | 521 nM
GAGGGACAGACCAACAUGAGGAUCACCCAUGUCCUCGCUGGUCAGGAUAUCCCGCCAACAGGCGAGGAGAAGGGACGGUGAACC (Eterna round: R96, puzzle: Same State NG 3) | – | – | – | 1110 nM | 425 nM | 724 nM
GAGGGACAUGAGGAUCACCCAUGUGGUAAAUUUAAAGGAUAUUAGUGUGGGAAAGUAGGGUAAGAAGGUUGAUUGG [JR_SS1_Sub086] (puzzle: Same State 1) | – | 87.7 nM | – | – | – | –
GAGUAGGACUUACAGGAUAUAUGGAGGUUGACAUGAGGAUCACCCAUGUCUGAGUUGGGAGGAGGAUAGAAGGGUAUGAGAGGCG [JR_SS2_Sub031] (puzzle: Same State 2) | 27.1 nM | 23.3 nM | 22.8 nM | – | – | –
GAGUAGUUGAAAGGAUAUAGAUUGUUGUAGGAUCUAGAAGGUUCUAACAUGAGGAUCACCCAUGUAGGACUAUUCCUGUGUAUC [Parity 87 - Jieux - Same State NG 1] (Eterna round: R96, puzzle: Same State NG 1) | – | – | – | 11.5 nM | 8.94 nM | 13.1 nM
GAGUAGUUGAAAGGAUAUUGAUUAUUGUAGGAUCAAGAAGGUUUUAACAUGAGGAUCACCCAUGUAGGACUAUAAAUGUGAAAA [Parity 94 - Jieux - Same State NG 1] (Eterna round: R96, puzzle: Same State NG 1) | – | – | – | 12.2 nM | 10.1 nM | 15.6 nM
GAGUGACGAUUAGGAUAUACAGUGAUAAUGAUAGUAGAAGGAAUUGACAUGAGGAUCACCCAUGUAGGACUAAUCCAGAGAGAG [Parity 29 - Jieux - Same State NG 1] (Eterna round: R96, puzzle: Same State NG 1) | – | – | – | 86.5 nM | 39.9 nM | 57.8 nM
GAGUGAUGGGUUAGUAACUGCUGGGAAGGACAUGAGGAUCACCCAUGUGAGUAGCGAGCUUGUGCUCGUCUUAUUAG [JR_SHM208A_Sub023] (puzzle: Sensor for hsa-mir-208a) | 207 nM | 114 nM | 379 nM | – | – | –
GAGUGGAGGAGAGGAUAUACAAUGAUAAUCACAGUAGAAGGUUCUAACAUGAGGAUCACCCAUGUAGGACUAUUCCUGAGAGAA [Parity 49 - Jieux - Same State NG 1] (Eterna round: R96, puzzle: Same State NG 1) | – | – | – | 10.2 nM | 9.32 nM | 15.7 nM
GAGUGGCAGUUAGGAUAUAUAGUGAUAAUGAUAAUAGAAGGAACAGACAUGAGGAUCACCCAUGUAGGACUAAUCCAGAGAGAG [Parity 34 - Jieux - Same State NG 1] (Eterna round: R96, puzzle: Same State NG 1) | – | – | – | 32.3 nM | 21.7 nM | 28.3 nM
